The values that follow come from the RNAGym collection of RNA variant scans (doi:10.7554/elife.80360).

B1: CPEB3 Ribozyme (parent)
chain: GGGGGCCACAGCAGAAGCGUUCACGUCGCGGCCCCUGUCAGAUUCUGGUGAAUCUGCGAAUUCUGCUGU

The data set covers variants of B1. The data set is described as follows: self-cleavage, relative activity (ratio to wild type); higher = more cleavage; co-transcriptional.
Take GGGGGCCACAGAAGAAGCGUUCACGUCGCGGCCCCUGUCAGAUUCUGGUGAAUCUGCGAAUUCUGCUGU [C12A]: the self-cleavage came to 0.806. Under GGGGGCCACAUCAGAAGCGUUCACGUCGCGGCCCCUGUCAGAUUCUGGUGAAACUGCGAAUUCUGCUGU [G11U U53A] stands 0.562; under GGGGGCCACAUCAGAAGCGUUCACGUCGCUGCCCCUGUCAGAUUCUGGUGAAUCUGCGAAUUCUGCUGU [G11U G30U], 0.263.

As for GGGGGCCACAUCAGAAGCGUUCACGUCGCGGCCCAUGUCAGAUUCUGGUGAAUCUGCGAAUUCUGCUGU [G11U C35A], the self-cleavage was 0.16.

Consider GGGGGCCACAUCAGAAGCGUUCACGUCGCGGCCCCUGUCAGAUUCUGGUGAAUCUGCGAAUUCUACUGU [G11U G65A], for which the self-cleavage worked out at 0.682.

Turning to GGGGGCCACAUCAGAAGCGUUCACGUCGCGGCCCCUGUCAGAUUCUGGUGAAUCUGCGAAUUCGGCUGU [G11U U64G], the self-cleavage amounted to 0.447. For the variant GGGGGCCACAUCAGAAGCGUUCACGUCGCGGCCCCUGUCAGAUUCUGGUGAAUCUGCGAAUUCCGCUGU [G11U U64C], the self-cleavage stood at 0.498. Under GGGGGCCACAUCAGAAGCGUUCACGUCGCGGCCCCUGUCACAUUCUGGUGAAUCUGCGAAUUCUGCUGU [G11U G41C] stands 0.197. Turning to GGGGGCCACAUCAGAAGCGUUCACGGCGCGGCCCCUGUCAGAUUCUGGUGAAUCUGCGAAUUCUGCUGU [G11U U26G], the self-cleavage worked out at 0.635. In the case of GGGGGCCACAUCAGAAGCGUUCACGUCGCGGCCCCUGUCAGAUUCUGGUGAAUCUGCGAACUCUGCUGU [G11U U61C], the self-cleavage stood at 0.271. To GGGGGCCACAUCAGAAGCGUUCACGUCGCGGCCCCUGUCAGAUUCUGGUGAAUCUGCGAAUUAUGCUGU [G11U C63A] belongs 0.418; to GGGGGCCACAUCAGAAGCGUUCACGUCGCGGCCCCUGUCAGAUUGUGGUGAAUCUGCGAAUUCUGCUGU [G11U C45G], 0.772; to GGGGGCCACAUCAGAAGCGUUCACGUCGCGGCCCCUGUCAGAUUCUUGUGAAUCUGCGAAUUCUGCUGU [G11U G47U], 0.941.

As for GGGGGCCACAUCAGAAGCGUUCACGUCGCGGCCCCUGUCAGAUUCUGUUGAAUCUGCGAAUUCUGCUGU [G11U G48U], the self-cleavage came out at 0.939. As to GGGGGCCACAUCAGAAGCGUUCACGUCGCGGCCCCUGUCAGAUUCUGAUGAAUCUGCGAAUUCUGCUGU [G11U G48A], the self-cleavage turned out to be 0.917. Under GGGGGCCACAUCAGAAGCGUUCACGUCGCGGCUCCUGUCAGAUUCUGGUGAAUCUGCGAAUUCUGCUGU [G11U C33U] stands 0.948; under GGGGGCCACAUCAGAAGCGUUCACGUCGCGGCCCCUGUCAGAUUCUGGUGAAUCUGCGAAUUCUGCUAU [G11U G68A], 0.932. Under GGGGGCCACAUCAGAAGCGUUCACGUCACGGCCCCUGUCAGAUUCUGGUGAAUCUGCGAAUUCUGCUGU [G11U G28A] stands 0.125. To GGGGGCCACAUCAGAAGCGUUCACGUCGCGGCCCCAGUCAGAUUCUGGUGAAUCUGCGAAUUCUGCUGU [G11U U36A] belongs 0.164; to GGGGGCCACAUCAGAAGCGUUCACGUCGCGGCCCCUGUCAGAUUCUGGUGAAUCUGCGAAUUCUGCUGC [G11U U69C], 1.05. Regarding GGGGGCCACAUCAGAAGCGUUCACGUCGCGGCCCCUGUCAGAUUCUGGUGAAUAUGCGAAUUCUGCUGU [G11U C54A], the self-cleavage came to 0.361. For the variant GGGGGCCACAUCAGAAGCGUUCACGUCGCGGCCCCUGUCAGAUUCUGGUGAAUGUGCGAAUUCUGCUGU [G11U C54G], the self-cleavage was 0.412. Under GGGGGCCACAUCAGAAGCGUUCACGUCGCGGCCCCUGUCAGAUUCUGGUGAAUUUGCGAAUUCUGCUGU [G11U C54U] stands 0.819; under GGGGGCCACAUCAGAAGCGUCCACGUCGCGGCCCCUGUCAGAUUCUGGUGAAUCUGCGAAUUCUGCUGU [G11U U21C], 0.541; under GGGGGCCACAUCAGAAGCGUGCACGUCGCGGCCCCUGUCAGAUUCUGGUGAAUCUGCGAAUUCUGCUGU [G11U U21G], 0.196. GGGGGCCACAUCAGAAGCGUUCACCUCGCGGCCCCUGUCAGAUUCUGGUGAAUCUGCGAAUUCUGCUGU [G11U G25C]: the self-cleavage was found to be 0.0857. Take GGGGGCCACAUCAGAAGCGUUCACGUCGCGGCCCCUGUCAGAUUCUGGUGAAUCAGCGAAUUCUGCUGU [G11U U55A]: the self-cleavage turned out to be 0.36. With GGGGGCCACAUCAGAAGCGUUCACGUCGCGGCCCCUGUCAGAUUCUGGUGAAUCCGCGAAUUCUGCUGU [G11U U55C], the self-cleavage came out at 0.302.

Regarding GGGGGCCACAUCAGAAGCGUUCACGUCGCGACCCCUGUCAGAUUCUGGUGAAUCUGCGAAUUCUGCUGU [G11U G31A], the self-cleavage worked out at 0.746.

In the case of GGGGGCCACAGAAGAAGCGUUCCCGUCGCGGCCCCUGUCAGAUUCUGGUGAAUCUGCGAAUUCUGCUGU [C12A A23C], the self-cleavage is 0.6.

With GGGGGCCACAGAAGAUGCGUUCACGUCGCGGCCCCUGUCAGAUUCUGGUGAAUCUGCGAAUUCUGCUGU [C12A A16U], the self-cleavage amounted to 0.27. Consider GGGGGCCACAGAAGAAGCGUUCACGUCGCGGCCCCUGUCAGUUUCUGGUGAAUCUGCGAAUUCUGCUGU [C12A A42U], for which the self-cleavage is 0.402. To GGGGGCCACAUCAAAAGCGUUCACGUCGCGGCCCCUGUCAGAUUCUGGUGAAUCUGCGAAUUCUGCUGU [G11U G14A] belongs 0.131; to GGGGGCCACAUCAGAAGCGUUCACGUCGCGGCCCCUGUCAGACUCUGGUGAAUCUGCGAAUUCUGCUGU [G11U U43C], 0.768. To GGGGGCCACAUCAGAAGCGUUCACGUCGCGGCCCCUGACAGAUUCUGGUGAAUCUGCGAAUUCUGCUGU [G11U U38A] belongs 0.687. Under GGGGGCCACAUCAGAAGCGUUCACGUCGCGGCCCCUGGCAGAUUCUGGUGAAUCUGCGAAUUCUGCUGU [G11U U38G] stands 0.178; under GGGGGCCACAUCAGAAGCGUUCACGUCGCGGCCACUGUCAGAUUCUGGUGAAUCUGCGAAUUCUGCUGU [G11U C34A], 0.694. With GGGGGCCACAGAUGAAGCGUUCACGUCGCGGCCCCUGUCAGAUUCUGGUGAAUCUGCGAAUUCUGCUGU [C12A A13U], the self-cleavage was 0.15.

Regarding GGGGGCCACAUCAGAAGCGUUCACGUCGCGGCCCCUGUCAGAUUCUGGUAAAUCUGCGAAUUCUGCUGU [G11U G50A], the self-cleavage turned out to be 0.896.
